Experiments:
[1] = system: tracheal smooth muscle (TSM) of mouse tracheal rings; assay: CCh-evoked force generation in cultured tracheal rings; type: cell-based; details: for Maximal tensions (%), CCh-evoked force generation: PBS-treated rings 100±8.39; for TSM sensitivity to CCh, LogEC50: Mean ± SE, N=6
Method: (§1) Experimental animals were sacrificed by CO2 asphyxiation. Tracheas were surgically excised and cleaned of adherent connective tissue. Each trachea was sectioned into rings 3-4 mm in length and cultured in DMEM containing 1.0 M HEPES, 1.0 M NaOH, 5% of heat-inactivated FBS (Hy-Clone, Logan, Utah), 0.2M glutamine, 1.0 M CaCl2, 2.5 μg/ml fungizone, 5 μg/mL insulin, 100 U/mL penicillin and 100 μg/mL streptomycin) (DMEM-5%) for 24 hours. For in vitro experiments, the tracheal rings were cultured in DMEM in the absence and presence of either 10 or 100 nM recombinant FIZZ1 (Leinco Technologies, USA) for 24 hours.
(§2) Trachea were supported longitudinally by a plexiglas rod with a stainless steel pin into the base of a double-jacketed, glass organ bath filled with 10 mL of Krebs-Henseleit (K-H) solution (37° C.) of the following composition: 118 mM NaCl; 4.7 mM KCl; 1.2 mM KH2PO4; 11.1 mM Dextrose; 1.2 mM MgSO4; 2.8 mM CaCl2; and 25 mM NaHCO3. The solution was maintained at a pH of 7.40-7.45 and continuously gassed with a mixture of 5% CO2 and […] for the duration of each experiment. […] Initial tensions of TSM were set at approximately 0.5 g and maintained for 1 hour. Agonists were given after a steady state of tension had been reached.
[CCh]-response curves at the doses ranging from 3×10^−8 to 10^−5 M were completed in tracheal rings in absence and presence of either FIZZ1 or LPS (0.1 ng/mL). Concentrations of agonist were increased only when force responses to the previous concentration had stabilized. To examine TSM relaxant responses to isoprenaline (ISO), tracheal rings were first contracted by an addition of 1.0 μM CCh (Sigma, USA). Once the contraction had stabilized, ISO (Sigma, USA) was introduced into each bath at increasing concentrations (3×10^−8-10^−5 M). […] In an additional experiment, the effect of FIZZ1 protein on the CCh-mediated force response was verified using 100 nM heat-inactivated FIZZ1 (natural and recombinant FIZZ1 solution heated at 70° C. for 60 min). Their dose-response curves were obtained as above. Fresh drug solutions such as CCh and ISO were made up on the day of the experiment. Doses of the above agents refer to the final bath concentration.
(§3) At the end of each force measurement experiment, tracheas were blotted on a gauze pad and weighted. Results were calculated as milligram of tension per milligram of TSM weight (mg/mg) and expressed as an individual percentage (%) of 10 μM CCh- or 200 μM papaverine-induced tension response in PBS-treated trachea. For the control group, CCh (papaverine)-mediated responses were normalized to the mean value of the maximal responses.

[2] = system: tracheal smooth muscle (TSM) of mouse tracheal rings; assay: ISO-induced relaxation of CCh-contracted tracheal rings; type: cell-based; details: normalized to 200 μM papaverine, PBS 46.29±2.85, n=6
Method: as §1, §2
[CCh]-response curves at the doses ranging from 3×10^−8 to 10^−5 M were completed in tracheal rings in absence and presence of either FIZZ1 or LPS (0.1 ng/mL). Concentrations of agonist were increased only when force responses to the previous concentration had stabilized. To examine TSM relaxant responses to isoprenaline (ISO), tracheal rings were first contracted by an addition of 1.0 μM CCh (Sigma, USA). Once the contraction had stabilized, ISO (Sigma, USA) was introduced into each bath at increasing concentrations (3×10^−8-10^−5 M). […]
as §3, with “For the control group, CCh (papaverine)-mediated responses were normalized to the mean value of the maximal responses.” left out

[3] = system: TSM of fresh tracheal rings; assay: Force response of fresh tracheas from intranasally challenged mice; type: in vivo, mouse; details: intranasal once a day×5 days, 100 nM rFIZZ1 or 0.1 ng/ml LPS; 24 hours after last treatment; PBS 100.00±14.63; N=5
Method: For some experiments, ex vivo TSM tensions of fresh tracheal rings and BAL cell counts were measured at 24 hours after the last treatment of mice receiving an intranasal dose of either PBS, 0.1 ng/m: LPS or 100 nM rFIZZ1 (once a day×5 days).
as §2, §3

[4] = system: mouse tracheal epithelium cells (MTEC); assay: Nitrite in MTEC supernatants, Griess reaction; type: cell-based; details: PBS, 0.1 ng/mL LPS or 100 nM rFIZZ1; any measured time point; N=3
Method: MTEC culture was performed by following the protocol of You et al. (“Growth and differentiation of mouse tracheal epithelial cells: selection of a proliferative population,” Am J Physiol Lung Cell Mol Physiol, 2002, 283:L 1315-1321) with minor modification. Briefly, tracheas were incubated in 1.5 mg/mL pronase (Roche Molecular Biochemicals) for 18 h at 4° C. Cells were treated with 0.5 mg/mL crude pancreatic DNase I (Sigma-Aldrich) on ice for 5 min. After incubation in tissue culture plates for 3-4 h in 5% CO2 at 37° C., nonadherent cells were incubated in a plate coated with type I rat tail collagen (BD Biosciences) in modified BEBM (Lonza, Md. USA) containing 10 μg/ml insulin, 5 μg/ml transferrin, 25 ng/ml epidermal growth factor, 5 μg/ml epinephrine and 30 μg/ml bovine pituitary extract, 0.5 nM Hydrocortisone, 25 ng/ml hEGF, 15 nM Triiodothyronine, 0.25 μg/ml Gentamicin/amphotericin-B and 0.01 μM retinoic acid in 5% CO2 at 37° C. […]
Nitric oxide (NO) was examined by measuring an end product, nitrite, using the Griess reaction (Xu et al., “Arginase and autoimmune inflammation in the central nervous system,” Immunology, 2003; 110:141-148). […] Absorbance was read at 540 nm in an automated microplate reader. […]

B1: rFIZZ1: recombinant FIZZ1 (Leinco Technologies), mouse FIZZ1 protein, resistin-like molecule-α (protein, listed as Mus musculus)
chain: MKTTTCSLLICISLLQLMVPVNTDETIEIIVENKVKELLANIPANYPSTVTKTLSCTSVKTMNRWASCPAGMTATGCACGFACGSWEIQSGDTCNCLCLLV
modifications: (1)..(101) Murine FIZZ1 polypeptide
Maximal tensions (%), CCh-evoked force generation ([1]; 10 nM rFIZZ1, cultured 24 hours, n=6): 117.21±7.87%
Maximal tensions (%), CCh-evoked force generation ([1]; 100 nM rFIZZ1, cultured 24 hours, n=6): 144.16±15.77%
maximal responses (%) of the tracheal rings, CCh-evoked ([1]; FIG. 4B, 100 nM heat-inactivated or native rFIZZ1, 0.1 ng/mL LPS, PBS 100±4.82, n=6): 135.67±9.02%
TSM sensitivity to CCh, LogEC50 ([1]; trachea treated with FIZZ1 10 nM): −0.96 ± 0.05 μM
TSM sensitivity to CCh, LogEC50 ([1]; trachea treated with FIZZ1 100 nM): −0.99 ± 0.03 μM
maximal relaxing force (%), ISO-induced ([2]; 10 nM rFIZZ1 pretreatment): 46.52±2.80%
maximal relaxing force (%), ISO-induced ([2]; 100 nM rFIZZ1 pretreatment): 43.38±0.75%
Maximal tensions (%) of TSM, CCh-evoked, fresh trachea [3]: 147.78±18.57%
changes in nitrite concentration in MTEC supernatants [4]: not obvious

From patent US20090274696A1, “METHODS FOR TREATING INFLAMMATION” (WYETH, priority 2008, published 2009)
